2 molecules from paper PMC11016868 can be followed below.

For data set [1], the target named is T1, MtrAC (MtrA DNA-binding domain) (UniProt P9WGM7 131-228).
T1 sequence: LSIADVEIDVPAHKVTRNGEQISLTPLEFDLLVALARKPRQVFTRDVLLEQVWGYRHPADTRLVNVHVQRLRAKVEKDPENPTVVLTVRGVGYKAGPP
The experiment in a line: fluorescence polarization. Background: In fluorescence polarisation assays a small probe gives low polarisation when free and higher when bound to something large.

For data set [2], the target named is PhoP (UniProt P71814 1-247). The experiment in a line: fluorescence polarization.

B1: dnaA promoter DNA (dsDNA)
DNA 1: GGCGGTGTAGTTATCACGCCGTTT
DNA 2: AAACGGCGTGATAACTACACCGCC
Consider B1, for which the Kd (usually the concentration at which binding is half-saturated) in data set [1] amounted to 1230 ± 260 nM.

B2: PhoP DNA (from PhoP-DNA complex, 5ED4) (dsDNA)
DNA 1: GATTCACAGCTGATTCACAGCATCTA
DNA 2: TAGATGCTGTGAATCAGCTGTGAATC
Take B2: in data set [2], the binding result is “binds”.
